This note sets out measurements from PMC5727130.

Test [1] addresses human Bri2 BRICHOS (residues 113–231) tagged C-terminally with AU1, secreted from HEK293 cells (human) (UniProt Q9Y287). Description: immunoprecipitation and Western blot after non-reducing SDS-PAGE; culture medium of HEK293 cells transfected with Bri2 BRICHOS; reducing against non-reducing conditions.
Test [2] has the same target. Description: Western blot after non-reducing SDS-PAGE; lysates of HEK293 cells transfected with Bri2 BRICHOS-AU1, anti-AU1 blot (Supplementary Fig. 9a). On the technique in general: A western blot detects proteins with antibodies after separation by electrophoresis.
Test [3] has as its target recombinant human Bri2 BRICHOS domain (residues 113–231 of full-length human Bri2) (human) (UniProt Q9Y287). Description: Western blot after non-reducing SDS-PAGE; rh Bri2 BRICHOS monomer (5 µM) incubated at 37 °C in 80% (v/v) mouse serum, samples at different time points, goat anti-Bri2 BRICHOS blot.
For test [4] the target is unchanged. The test can be described thus: SDS-PAGE under non-reducing and reducing conditions; monomeric rh Bri2 BRICHOS (26.8 µM) incubated at 37 °C overnight in 20 mM phosphate pH 8.0, 0.2 mM EDTA, 0.02% NaN3.
Test [5] shares this target. Description: SEC; rh Bri2 BRICHOS cleaved from isolated fusion-protein monomers; Superdex 200 PG. On the technique in general: In gel filtration, larger molecules generally elute earlier.
For test [6] the target is unchanged. The test can be described thus: negative-stain TEM single-particle 3D reconstruction; oligomers isolated on Superose 6 GL in 20 mM ammonium acetate pH 8.0, 2% uranyl acetate stain, D2 symmetry applied; number of subunits from the volume of the map against that of a monomer model.
For test [7] the target is unchanged. Description: SEC; rh Bri2 BRICHOS cleaved from isolated fusion-protein dimers; Superdex 200 PG.
For test [8], the target named is His6-NT*-thrombin cleavage site-Bri2 BRICHOS fusion protein (human) (UniProt Q9Y287). Description: SEC; Ni-NTA-purified NT*-Bri2 BRICHOS fusion protein resolved on Superdex columns (Supplementary Fig. 1).

Values joined by “and” are separate entries in the source; they are usually repeats but may differ in a detail not shown here. Equal values may be shown once.

With “human Bri2 BRICHOS (residues 113–231) tagged C-terminally with AU1, secreted from HEK293 cells (from UniProt Q9Y287 113-231) (domain or fragment)”, the stoichiometry N (as a rule, the number of molecules, sites or subunits per partner or assembly) is 2 and 4 in test [1]; 2 and 4 in test [2].
For the substance “recombinant human Bri2 BRICHOS domain (residues 113–231 of full-length human Bri2) (from UniProt Q9Y287 113-231) (domain or fragment)”, the stoichiometry N in test [3] is 2 and 4 and 6; in test [4] it was 2; in test [5], 2; in test [6] it was 24; in test [7], 2 and 4.
In turn, “His6-NT*-thrombin cleavage site-Bri2 BRICHOS fusion protein (from UniProt Q9Y287 113-231) (domain or fragment)” returned a stoichiometry N in test [8] of 2.
